6 molecules from patent publication US20220177587A1, “METHODS AND USES OF VARIANT CD80 FUSION PROTEINS AND RELATED CONSTRUCTS” (Alpine Immune Sciences, Inc., priority 2018, published 2022) can be followed below.

B1: H18Y/V68M/A71G/D90G (protein)
chain: VIHVTKEVKEVATLSCGYNVSVEELAQTRIYWQKEKKMVLTMMSGDMNIWPEYKNRTIFDITNNLSIMILGLRPSDEGTYECVVLKYEKGAFKREHLAEVTLSVKAD
B2: H18Y/A26E/E35D/M47L (protein)
chain: B1 chain with A26E, E35D, M47L, M68V, G71A, G90D
B3: E35D/M47L/V68M/D90G (protein)
chain: B1 chain with Y18H, E35D, M47L, G71A
B4: A26E/M47L/A71G/D90G (protein)
chain: B1 chain with Y18H, A26E, M47L, M68V
B5: A26E/E35D/V68M/D90G (protein)
chain: B1 chain with Y18H, A26E, E35D, G71A
B6: E35D/M47L/A71G/D90G (protein)
chain: B1 chain with Y18H, E35D, M47L, M68V

Numbering of substitutions follows the chain as printed. Numbers in names are those of the source.

huCTLA4, sequence (P16410 36-223): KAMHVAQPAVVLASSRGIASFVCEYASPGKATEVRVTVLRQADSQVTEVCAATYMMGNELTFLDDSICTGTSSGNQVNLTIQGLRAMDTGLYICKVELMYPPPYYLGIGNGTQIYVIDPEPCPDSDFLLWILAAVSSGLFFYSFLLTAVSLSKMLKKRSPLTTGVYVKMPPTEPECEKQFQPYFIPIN

The first assay concerns the target T1, CD28 (Homo sapiens, UniProt P10747). Nature of the assay: Flow binding to Jurkat/IL2 reporter cells (CD28). Details: host or cells: Jurkat cells expressing an IL-2-luciferase reporter. The note with it: Table E20; Jurkats (CD28); 33.3 nM. An outline of the steps:
(§1)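 Binding EC50 and PE mean fluorescence intensity derived by flow cytometry using PE-labelled anti-human Fc secondary. Target cells were CTLA4- or PD-L1-transfected CHO lines and CD28-expressing Jurkat/IL2 reporter cells, stained with fusion proteins on ice for 45 min following BSA blocking.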
As to B1, the “CD28 MFI at 33.3 nM” value is 3414.
On the same count and under the same terms, the value for B2 was 324.
In the case of B3, the “CD28 MFI at 33.3 nM” value was 3414.
On the same count and under the same terms, the value for B4 was 1955.
Same read-out and setting: with B5 the figure was 1683.
Still for that read-out and setting: with B6 the figure was 1331.

Still in this assay, the particulars now being: Table E20; MFI at 33.3 nM relative to CD80 WT IgV-Fc.
With B1, the “CD28 Fold change to WT CD80” value was found to be 77.8 fold.
Same read-out and setting: with B2 the figure was 7.4 fold; with B3, 77.8 fold.
Same read-out and setting: with B4 the figure was 44.5 fold.
B5: the “CD28 Fold change to WT CD80” value is 38.3 fold.
Same read-out and setting: with B6 the figure was 30.3 fold.

A further assay concerns the target T1, CD28. As to the kind of experiment: Jurkat/IL2 + CHO/OKT3 +/- PD-L1 reporter assay: PD-L1-dependent CD28 costimulation. In kind it is cell-based. The settings on record: Table E22; Jurkat/IL2 + CHO/OKT3/PD-L1; 5.0 nM. Details: host or cells: Jurkat cells expressing an IL-2-luciferase reporter. An outline of the steps: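 Readout is relative luminescence from lysed cocultures: test protein given 15 min at room temperature to Jurkat cells before adding CHO artificial APCs displaying OKT3 alone or OKT3 plus PD-L1, then 5 h at 37 °C, 5% CO2.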
In general terms: A reporter such as luciferase makes a cellular process visible.
Regarding B1, the “Fold Increase over WT CD80-IgV-Fe” value worked out at 2.04 fold.
The same measure, in the same setting: the value for B2 was 3.10 fold; that for B3 was 1.82 fold; that for B4 was 2.12 fold.
Still for that read-out and setting: with B5 the figure was 2.23 fold; with B6, 2.01 fold.

The assay is the same for the next values; noted with them: Table E22; Jurkat/IL2 + CHO/OKT3/PD-L1; CD80 Conc 5.0 nM.
On to B1, for which the “Relative Luciferase Units (RLU), CD80 Conc 5.0 nM” value (“Relative Luciferase Units (RLU)” below) amounted to 797 RLU.
Still for that read-out and setting: the value for B2 was 1208 RLU; that for B3 was 711 RLU; that for B4 was 827 RLU.
As to B5, the “Relative Luciferase Units (RLU)” value is 871 RLU.
Take B6: the “Relative Luciferase Units (RLU)” value was determined as 784 RLU.

A further assay deals with huCTLA4 (Homo sapiens, UniProt P16410). Nature of the assay: Flow binding to CHO cells stably expressing CTLA4. Details: huCTLA4 and huPD-L1, full-length mammalian surface expression constructs were generated; expressed in transfected cells; host or cells: CHO cells, lentiviral transduction, sorted to >98% purity. The note with it: Table E20; CHO cells stably expressing CTLA4; 33.3 nM. The method in brief:
as §1
Turning to B1, the “CTLA4 MFI at 33.3 nM” value is on record as 22321.
Still for that read-out and setting: with B2 the figure was 23990.
For B3, the “CTLA4 MFI at 33.3 nM” value was determined as 27607.
On the same count and under the same terms, with B4 the figure was 21955; with B5, 13879.
As for B6, the “CTLA4 MFI at 33.3 nM” value worked out at 20921.

The assay is the same for the next values; noted with them: Table E20; MFI at 33.3 nM relative to CD80 WT IgV-Fc.
As for B1, the “CTLA4 Fold change to WT CD80” value is listed as 16.4 fold.
As to B2, the “CTLA4 Fold change to WT CD80” value was determined as 17.7 fold.
The same measure, in the same setting: with B3 the figure was 20.3 fold.
The same measure, in the same setting: the value for B4 was 16.2 fold.
Same read-out and setting: the value for B5 was 10.2 fold; that for B6 was 15.4 fold.

The target of the next assay is huPD-L1 (Homo sapiens, UniProt Q9NZQ7). Nature of the assay: Flow binding to CHO cells stably expressing PD-L1. More on the design: huCTLA4 and huPD-L1, full-length mammalian surface expression constructs were generated; expressed in transfected cells; host or cells: CHO cells, lentiviral transduction, sorted to >98% purity. The settings on record: Table E20; CHO cells stably expressing PD-L1; 33.3 nM. The method in brief: as §1
huPD-L1, sequence (Q9NZQ7 19-290): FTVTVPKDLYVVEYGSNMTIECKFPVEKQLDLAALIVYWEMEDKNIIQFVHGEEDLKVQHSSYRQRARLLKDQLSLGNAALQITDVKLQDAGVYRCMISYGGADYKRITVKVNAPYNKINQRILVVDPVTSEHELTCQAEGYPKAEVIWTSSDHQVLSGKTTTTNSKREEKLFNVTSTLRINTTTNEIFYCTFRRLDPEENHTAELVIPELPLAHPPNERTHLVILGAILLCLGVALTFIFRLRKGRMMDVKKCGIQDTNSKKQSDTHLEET
For B1, the “PD-L1 MFI at 33.3 nM” value is recorded as 30670.
On the same count and under the same terms, with B2 the figure was 9951.
The same measure, in the same setting: with B3 the figure was 23482; with B4, 13204.
B5: the “PD-L1 MFI at 33.3 nM” value was found to be 6987.
Regarding B6, the “PD-L1 MFI at 33.3 nM” value was 12073.

Staying with this assay, now noted: Table E20; MFI at 33.3 nM relative to CD80 WT IgV-Fc.
On to B1, for which the “PD-L1 Fold change to WT CD80” value came to 703.4 fold.
With B2, the “PD-L1 Fold change to WT CD80” value was 228.2 fold.
Still for that read-out and setting: with B3 the figure was 538.6 fold; with B4, 302.8 fold; with B5, 160.3 fold.
The same measure, in the same setting: the value for B6 was 276.9 fold.

Staying with this assay, now noted: Table E20; ratio of MFI at 33.3 nM.
Regarding B1, the “Ratio of PDL1:CD28” value is listed as 9.0.
The same measure, in the same setting: with B2 the figure was 30.7; with B3, 6.9; with B4, 6.8.
Still for that read-out and setting: the value for B5 was 4.2; that for B6 was 9.1.
